# B1: ARS2 (protein, UniProt Q9BXP5 2-876, looked up)
# Serrate RNA effector molecule …: GDSDDEYDRRRRDKFRRERSDYDRSRERDERRRGDDWNDREWDRGRERRSRGEYRDYDRNRRERFSPPRHELSPPQKRMRRDWDEHSSDPYHSGYEMPYAGGGGGPTYGPPQPWGHPDVHIMQHHVLPIQARLGSIAEIDLGVPPPVMKTFKEFLLSLDDSVDETEAVKRYNDYKLDFRRQQMQDFFLAHKDEEWFRSKYHPDEVGKRRQEARGALQNRLRVFLSLMETGWFDNLLLDIDKADAIVKMLDAAVIKMEGGTENDLRILEQEEEEEQAGKPGEPSKKEEGRAGAGLGDGERKTNDKDEKKEDGKQAENDSSNDDKTKKSEGDGDKEEKKEDSEKEAKKSSKKRNRKHSGDDSFDEGSVSESESESESGQAEEEKEEAEEALKEKEKPKEEEWEKPKDAAGLECKPRPLHKTCSLFMRNIAPNISRAEIISLCKRYPGFMRVALSEPQPERRFFRRGWVTFDRSVNIKEICWNLQNIRLRECELSPGVNRDLTRRVRNINGITQHKQIVRNDIKLAAKLIHTLDDRTQLWASEPGTPPLPTSLPSQNPILKNITDYLIEEVSAEEEELLGSSGGAPPEEPPKEGNPAEINVERDEKLIKVLDKLLLYLRIVHSLDYYNTCEYPNEDEMPNRCGIIHVRGPMPPNRISHGEVLEWQKTFEEKLTPLLSVRESLSEEEAQKMGRKDPEQEVEKFVTSNTQELGKDKWLCPLSGKKFKGPEFVRKHIFNKHAEKIEEVKKEVAFFNNFLTDAKRPALPEIKPAQPPGPAQILPPGLTPGLPYPHQTPQGLMPYGQPRPPILGYGAGAVRPAVPTGGPPYPHAPYGAGRGNYDAFRGQGGYPGKPRNRMVRGDPRAIVEYRDLDAPDDVDFF
# B2: ACTN1 (protein, UniProt P12814 1-892, looked up)
# Alpha-actinin-1: MDHYDSQQTNDYMQPEEDWDRDLLLDPAWEKQQRKTFTAWCNSHLRKAGTQIENIEEDFRDGLKLMLLLEVISGERLAKPERGKMRVHKISNVNKALDFIASKGVKLVSIGAEEIVDGNVKMTLGMIWTIILRFAIQDISVEETSAKEGLLLWCQRKTAPYKNVNIQNFHISWKDGLGFCALIHRHRPELIDYGKLRKDDPLTNLNTAFDVAEKYLDIPKMLDAEDIVGTARPDEKAIMTYVSSFYHAFSGAQKAETAANRICKVLAVNQENEQLMEDYEKLASDLLEWIRRTIPWLENRVPENTMHAMQQKLEDFRDYRRLHKPPKVQEKCQLEINFNTLQTKLRLSNRPAFMPSEGRMVSDINNAWGCLEQVEKGYEEWLLNEIRRLERLDHLAEKFRQKASIHEAWTDGKEAMLRQKDYETATLSEIKALLKKHEAFESDLAAHQDRVEQIAAIAQELNELDYYDSPSVNARCQKICDQWDNLGALTQKRREALERTEKLLETIDQLYLEYAKRAAPFNNWMEGAMEDLQDTFIVHTIEEIQGLTTAHEQFKATLPDADKERLAILGIHNEVSKIVQTYHVNMAGTNPYTTITPQEINGKWDHVRQLVPRRDQALTEEHARQQHNERLRKQFGAQANVIGPWIQTKMEEIGRISIEMHGTLEDQLSHLRQYEKSIVNYKPKIDQLEGDHQLIQEALIFDNKHTNYTMEHIRVGWEQLLTTIARTINEVENQILTRDAKGISQEQMNEFRASFNHFDRDHSGTLGPEEFKACLISLGYDIGNDPQGEAEFARIMSIVDPNRLGVVTFQAFIDFMSRETADTDTADQVMASFKILAGDKNYITMDELRRELPPDQAEYCIARMAPYTGPDSVPGALDYMSFSTALYGESDL
# B3: AEBP1 (protein, UniProt Q8IUX7 26-1158, looked up)
# Adipocyte enhancer-binding …: QTVLTDDEIEEFLEGFLSELEPEPREDDVEAPPPPEPTPRVRKAQAGGKPGKRPGTAAEVPPEKTKDKGKKGKKDKGPKVPKESLEGSPRPPKKGKEKPPKATKKPKEKPPKATKKPKEKPPKATKKPKEKPPKATKKPPSGKRPPILAPSETLEWPLPPPPSPGPEELPQEGGAPLSNNWQNPGEETHVEAREHQPEPEEETEQPTLDYNDQIEREDYEDFEYIRRQKQPRPPPSRRRRPERVWPEPPEEKAPAPAPEERIEPPVKPLLPPLPPDYGDGYVIPNYDDMDYYFGPPPPQKPDAERQTDEEKEELKKPKKEDSSPKEETDKWAVEKGKDHKEPRKGEELEEEWTPTEKVKCPPIGMESHRIEDNQIRASSMLRHGLGAQRGRLNMQTGATEDDYYDGAWCAEDDARTQWIEVDTRRTTRFTGVITQGRDSSIHDDFVTTFFVGFSNDSQTWVMYTNGYEEMTFHGNVDKDTPVLSELPEPVVARFIRIYPLTWNGSLCMRLEVLGCSVAPVYSYYAQNEVVATDDLDFRHHSYKDMRQLMKVVNEECPTITRTYSLGKSSRGLKIYAMEISDNPGEHELGEPEFRYTAGIHGNEVLGRELLLLLMQYLCREYRDGNPRVRSLVQDTRIHLVPSLNPDGYEVAAQMGSEFGNWALGLWTEEGFDIFEDFPDLNSVLWGAEERKWVPYRVPNNNLPIPERYLSPDATVSTEVRAIIAWMEKNPFVLGANLNGGERLVSYPYDMARTPTQEQLLAAAMAAARGEDEDEVSEAQETPDHAIFRWLAISFASAHLTLTEPYRGGCQAQDYTGGMGIVNGAKWNPRTGTINDFSYLHTNCLELSFYLGCDKFPHESELPREWENNKEALLTFMEQVHRGIKGVVTDEQGIPIANATISVSGINHGVKTASGGDYWRILNPGEYRVTAHAEGYTPSAKTCNVDYDIGATQCNFILARSNWKRIREIMAMNGNRPIPHIDPSRPMTPQQRRLQQRRLQHRLRLRAQMRLRRLNATTTLGPHTVPPTLPPAPATTLSTTIEPWGLIPPTTAGWEESETETYTEVVTEFGTEVEPEFGTKVEPEFETQLEPEFETQLEPEFEEEEEEEKEEEIATGQAFPFTTVETYTVNFGDF
# B4: ARHGEF6 (protein, UniProt Q15052 1-776, looked up)
# Rho guanine nucleotide …: MNPEEQIVTWLISLGVLESPKKTICDPEEFLKSSLKNGVVLCKLINRLMPGSVEKFCLDPQTEADCINNINDFLKGCATLQVEIFDPDDLYSGVNFSKVLSTLLAVNKATEDQLSERPCGRSSSLSAANTSQTNPQGAVSSTVSGLQRQSKTVEMTENGSHQLIVKARFNFKQTNEDELSVCKGDIIYVTRVEEGGWWEGTLNGRTGWFPSNYVREIKSSERPLSPKAVKGFETAPLTKNYYTVVLQNILDTEKEYAKELQSLLVTYLRPLQSNNNLSTVEVTSLLGNFEEVCTFQQTLCQALEECSKFPENQHKVGGCLLSLMPHFKSMYLAYCANHPSAVNVLTQHSDELEQFMENQGASSPGILILTTNLSKPFMRLEKYVTLLQELERHMEDTHPDHQDILKAIVAFKTLMGQCQDLRKRKQLELQILSEPIQAWEGEDIKNLGNVIFMSQVMVQYGACEEKEERYLMLFSNVLIMLSASPRMSGFIYQGKIPIAGTVVTRLDEIEGNDCTFEITGNTVERIVVHCNNNQDFQEWLEQLNRLIRGPASCSSLSKTSSSSCSAHSSFSSTGQPRGPLEPPQIIKPWSLSCLRPAPPLRPSAALGYKERMSYILKESSKSPKTMKKFLHKRKTERKPSEEEYVIRKSTAALEEDAQILKVIEAYCTSANFQQGHGSSTRKDSIPQVLLPEEEKLIIEETRSNGQTIMEEKSLVDTVYALKDEVRELKQENKRMKQCLEEELKSRRDLEKLVRRLLKQTDECIRGESSSKTSILP
# B5: ARFIP2 (protein, UniProt P53365 1-341, looked up)
# Arfaptin-2: MTDGILGKAATMEIPIHGNGEARQLPEDDGLEQDLQQVMVSGPNLNETSIVSGGYGGSGDGLIPTGSGRHPSHSTTPSGPGDEVARGIAGEKFDIVKKWGINTYKCTKQLLSERFGRGSRTVDLELELQIELLRETKRKYESVLQLGRALTAHLYSLLQTQHALGDAFADLSQKSPELQEEFGYNAETQKLLCKNGETLLGAVNFFVSSINTLVTKTMEDTLMTVKQYEAARLEYDAYRTDLEELSLGPRDAGTRGRLESAQATFQAHRDKYEKLRGDVAIKLKFLEENKIKVMHKQLLLFHNAVSAYFAGNQKQLEQTLQQFNIKLRPPGAEKPSWLEEQ
# B6: ANKRD28 (protein, UniProt O15084 1-1053, looked up)
# Serine/threonine-protein …: MAFLKLRDQPSLVQAIFNGDPDEVRALIFKKEDVNFQDNEKRTPLHAAAYLGDAEIIELLILSGARVNAKDSKWLTPLHRAVASCSEEAVQVLLKHSADVNARDKNWQTPLHIAAANKAVKCAEALVPLLSNVNVSDRAGRTALHHAAFSGHGEMVKLLLSRGANINAFDKKDRRAIHWAAYMGHIEVVKLLVSHGAEVTCKDKKSYTPLHAAASSGMISVVKYLLDLGVDMNEPNAYGNTPLHVACYNGQDVVVNELIDCGAIVNQKNEKGFTPLHFAAASTHGALCLELLVGNGADVNMKSKDGKTPLHMTALHGRFSRSQTIIQSGAVIDCEDKNGNTPLHIAARYGHELLINTLITSGADTAKRGIHGMFPLHLAALSGFSDCCRKLLSSGFDIDTPDDFGRTCLHAAAAGGNLECLNLLLNTGADFNKKDKFGRSPLHYAAANCNYQCLFALVGSGASVNDLDERGCTPLHYAATSDTDGKCLEYLLRNDANPGIRDKQGYNAVHYSAAYGHRLCLQLIASETPLDVLMETSGTDMLSDSDNRATISPLHLAAYHGHHQALEVLVQSLLDLDVRNSSGRTPLDLAAFKGHVECVDVLINQGASILVKDYILKRTPIHAAATNGHSECLRLLIGNAEPQNAVDIQDGNGQTPLMLSVLNGHTDCVYSLLNKGANVDAKDKWGRTALHRGAVTGHEECVDALLQHGAKCLLRDSRGRTPIHLSAACGHIGVLGALLQSAASMDANPATADNHGYTALHWACYNGHETCVELLLEQEVFQKTEGNAFSPLHCAVINDNEGAAEMLIDTLGASIVNATDSKGRTPLHAAAFTDHVECLQLLLSHNAQVNSVDSTGKTPLMMAAENGQTNTVEMLVSSASAELTLQDNSKNTALHLACSKGHETSALLILEKITDRNLINATNAALQTPLHVAARNGLTMVVQELLGKGASVLAVDENGYTPALACAPNKDVADCLALILATMMPVSSSSPLSSLTFNAINRYTNTSKTVSFEALPIMRNEPSSYCSFNNIGGEQEYLYTDVDELNDSDSETY
# Target: T1, HCV ORFs (Gal4-DB fusions) (Hepatitis C virus genotype 1b, UniProt Q9WMX2)
# T1 construct: expressed in transfected cells; host or cells: Saccharomyces cerevisiae MAV203 (IMAP1) / AH109 (IMAP2)
# Assay: not given
# Assay type: binding, HCV genotype 1b, isolate con1
# Details: HCV protein NS3 as bait; human protein as prey
# 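Throughout, for IMAP Y2H IMAP1 (number of IST): yeast two-hybrid screens using HCV genotype 1b proteins fused to Gal4-DB as baits against prey cDNA libraries from human spleen and foetal brain, IMAP1 via transformation and IMAP2 via mating.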
# 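Throughout, for Interaction with viral protein: yeast two-hybrid screens using HCV genotype 1b proteins fused to Gal4-DB as baits against prey cDNA libraries from human spleen and foetal brain, IMAP1 via transformation and IMAP2 via mating.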
# T1 sequence (Q9WMX2 1027-1657): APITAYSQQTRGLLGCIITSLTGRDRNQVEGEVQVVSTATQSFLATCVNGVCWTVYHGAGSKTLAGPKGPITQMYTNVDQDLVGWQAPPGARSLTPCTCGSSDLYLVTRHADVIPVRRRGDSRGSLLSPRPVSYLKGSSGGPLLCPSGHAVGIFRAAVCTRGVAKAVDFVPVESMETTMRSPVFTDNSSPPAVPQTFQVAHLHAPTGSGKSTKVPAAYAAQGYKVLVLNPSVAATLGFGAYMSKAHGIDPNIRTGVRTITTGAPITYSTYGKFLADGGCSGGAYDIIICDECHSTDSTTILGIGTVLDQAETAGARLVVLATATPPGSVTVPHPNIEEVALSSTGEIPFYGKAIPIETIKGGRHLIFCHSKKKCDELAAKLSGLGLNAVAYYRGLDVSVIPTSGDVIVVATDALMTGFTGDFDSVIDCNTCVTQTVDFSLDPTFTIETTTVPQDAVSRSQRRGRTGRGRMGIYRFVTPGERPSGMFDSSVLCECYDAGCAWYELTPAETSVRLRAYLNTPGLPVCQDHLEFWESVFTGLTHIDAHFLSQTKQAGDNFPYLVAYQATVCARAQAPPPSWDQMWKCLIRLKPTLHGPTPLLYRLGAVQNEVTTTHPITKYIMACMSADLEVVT
row,Molecule,IMAP Y2H IMAP1 (number of IST)
1,B1,4
2,B2,9
3,B3,2
4,B4,1
5,B5,1
6,B6,1

# System: HCV ORFs (Gal4-DB fusions)
# Assay: not given
# Assay type: binding, HCV genotype 1b, isolate con1
# Details: human protein listed by gene symbol; the value names the HCV protein it interacts with
row,Molecule,Interaction with viral protein
1,B1,NS3
2,B2,NS3
3,B3,NS3
4,B4,NS3
5,B5,NS3
6,B6,NS3

# Target: T2, HCV proteins (Hepatitis C virus genotype 1b, UniProt Q9WMX2)
# T2 construct: expressed in transfected cells
# Assay: Validation by Y2H pairwise matrices;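 note: yeast two-hybrid pairwise tests of interactions first found in Y2H screens of HCV bait proteins against human cDNA libraries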
# Assay type: binding
# Details: validation of interaction with HCV protein NS3
# T2 sequence (Q9WMX2 1027-1657): as above
row,Molecule,Y2H matrices
1,B1,+
2,B2,+
3,B3,+
4,B4,+
5,B5,+
6,B6,+

# Source: patent US20110091994A1, “Methods for Screening Compounds for Treating and/or Preventing an Hepatitis C Virus Infection” (priority 2008, published 2011)
